Measurements reported in article PMC7060239.

Target: human DNMT1 RFTS domain, residues 351–600 (human) (UniProt P26358)
Test: ITC; hRFTS and ubiquitylated hPAF15_(2-30) analogs; VP-ITC; 10 mM HEPES-NaOH (pH 7.5), 150 mM NaCl, 10 μM zinc acetate; one-site model; c value 10,000 for hPAF15_(2-30)Ub2

Sequence of human DNMT1 RFTS domain, residues 351–600 (human) (P26358 351-600): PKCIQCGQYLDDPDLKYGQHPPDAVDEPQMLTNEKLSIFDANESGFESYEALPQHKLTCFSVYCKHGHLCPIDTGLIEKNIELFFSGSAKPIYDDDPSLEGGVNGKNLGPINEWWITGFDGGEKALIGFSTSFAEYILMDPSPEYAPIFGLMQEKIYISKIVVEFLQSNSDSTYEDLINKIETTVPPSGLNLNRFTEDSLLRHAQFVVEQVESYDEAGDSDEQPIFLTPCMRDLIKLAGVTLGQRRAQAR

| Substance | Kd | stoichiometry N |
| --- | --- | --- |
| hPAF15_(2-30)K15Ub, disulfide-linked mono-ubiquitylated analog (from UniProt Q15004 2-30) | 1.2 µM | – |
| hPAF15_(2-30)Ub2, disulfide-linked dual mono-ubiquitylated analog of human PAF15 (residues 2–30) (from UniProt Q15004 2-30) | 0.0014 µM | 1 |
